“Also recorded” adds a separate entry of the source.
Columns and labels:
[1] = molecular target: T1, human Kv1.1 (Homo sapiens, UniProt Q09470); type: cell-based; conditions: read-out: hKv1.1: IC50
T1 construct: expressed in transfected cells; host or cells: HEK293

[2] = molecular target: T2, human Kv1.3 (Homo sapiens, UniProt P22001); type: cell-based
[3] = tested on: T cell proliferation, human PBMCs; assay: T cell proliferation (3H-thymidine incorporation) in anti-CD3/anti-CD28 stimulated human PBMCs; type: cell-based; conditions: antibodies to CD3 and CD28
Excerpt: Inhibition of T cell proliferation following anti-CD3 and anti-CD28 antibody stimulation of PBMCs. PBMC's were previously isolated from normal human donor Leukophoresis packs, purified by density gradient centrifugation (Ficoll Hypaque), cryopreserved in CPZ Cryopreservation Medium Complete (INCELL, MCPZF-100 plus 10% DMSO final). PBMC's were thawed (95% viability), washed, and seeded at 2×10^5 cells per well in culture medium (RPMI medium 1640; GIBCO) supplemented with 10% fetal calf serum, 100 U/ml penicillin, […] streptomycin, 2 mM L-glutamine, 100 μM non-essential amino acids, and 20 μM 2-ME) in 96-well flat-bottom tissue culture plates. Cells were pre-incubated with either anti-human CD32 (FcyRII) blocking antibody (per manufacturers instructions EASY SEP Human Biotin Selection Kit #18553, StemCell Technologies Vancouver, BC) or Fc-L10-ShK (100 nM-0.001 nM final) for 45 min. Fc-L10-ShK (100 nM-0.001 nM final) was then added to the cells containing anti-human CD32 blocking antibody while medium was added to the cells containing Fc-L10-ShK. Both sets were incubated for an additional 45 min before stimulating for 48 hr with aCD3/aCD28 (0.2 ng/ml and 100 ng/ml, respectively). Final assay volume was 200 ul. […] Cells were then harvested onto glass fiber filters and radioactivity was measured in a B-scintillation counter.

[4] = molecular target: T2, human Kv1.3; assay: Whole cell immunoassay (ELISA) of binding to fixed HEK 293 cells overexpressing Kv1.3; set-up: expressed in transfected cells
Procedure: Our peptibody reagent can be a useful and convenient tool for monitoring Kv1.3 channel expression in patients and have utility in diagnostic applications. The procedure shown in FIG. 34A and FIG. 34B follows.
FIG. 34A. A whole cell immunoassay was performed to show binding of intact Fc-L10-ShK[1-35] to Kv1.3 transfected HEK 293 cells (BioFocus plc, Cambridge, UK). Parent HEK 293 cells or HEK Kv1.3 cells were plated at 3×10e4 cells/well in poly-D-Lysine coated ninety-six well plates (#35-4461; Becton-Dickinson, Bedford, Mass.). Cells were fixed with formalin (Sigma HT50-1-1 Formalin solution, diluted 1:1 with PBS/0.5% BSA before use) by removing cell growth medium, adding 0.2 ml/well formalin solution and incubating at room temperature for 25 minutes and then washing one time with 100 μl/well of PBS/0.5% BSA. Wells were blocked by addition of 0.3 ml/well of BSA blocker (50-61-00; KPL 10% BSA Diluent/Blocking Solution, diluted 1:1 with PBS; KPL, Gaithersburg, Md.) followed by incubation at room temperature, with shaking, for 3 hr. Plates were washed 2 times with 1×KP Wash Buffer (50-63-00; KPL). […] Absorbance was read at 450 nm on a Molecular Devices SpectroMax 340 (Sunnyvale, Calif.).
FIG. 34B. […] Absorbances were read at 405 nm after stopping reactions by addition of 0.1 ml/well of 1% SDS.

[5] = molecular target: T2, human Kv1.3; assay: Immunohistochemistry of peptibody binding to HEK 293 cells overexpressing human Kv1.3; set-up: expressed in transfected cells; conditions: 5 μg/ml peptibody
Procedure: Immunohistochemistry analysis of Fc-L10-ShK[1-35] binding to HEK 293 cells overexpressing human Kv1.3. HEK 293 cells overexpressing human Kv1.3 (HEK Kv1.3) were obtained from BioFocus plc (Cambridge, UK) and maintained per manufacturer's recommendation. The parental HEK 293 cell line was used as a control. Cells were plated on Poly-D-Lysine 24 well plates (#35-4414; Becton-Dickinson, Bedford, Mass.) and allowed to grow to approximately 70% confluence. HEK KV1.3 were plated at 0.5×10e5 cells/well in 1 ml/well of medium. HEK 293 cells were plated at a density of 1.5×10e5 cells/well in 1 ml/well of medium. Before staining, cells were fixed with formalin (Sigma HT50-1-1 Formalin solution, diluted 1:1 with PBS/0.5% BSA before use) by removing cell growth medium, adding 0.2 ml/well formalin solution and incubating at room temperature for ten minutes. Cells were stained by incubating with 0.2 ml/well of 5 μg/ml Fc-L10-ShK[1-35] in PBS/BSA for 30′ at room temperature. Fc-L10-ShK[1-35] was aspirated and then the cells were washed one time with PBS/0.5% BSA. Detection antibody (Goat F(ab)2 anti-human IgG-phycoerythrin; Southern Biotech Associates, Birmingham, Ala.) was added to the wells at 5 μg/ml in PBS/0.5% BSA and incubated for 30′ at room temperature. Wash cells once with PBS/0.5% BSA and examine using confocal microscopy (LSM 510 Meta Confocal Microscope; Carl Zeiss AG, Germany). […]

[6] = tested on: IL-2R on CD4+ T cells; type: cell-based, human
[7] = tested on: CD40L on CD4+ T cells; type: cell-based, human

T2 sequence (P22001 whole entry): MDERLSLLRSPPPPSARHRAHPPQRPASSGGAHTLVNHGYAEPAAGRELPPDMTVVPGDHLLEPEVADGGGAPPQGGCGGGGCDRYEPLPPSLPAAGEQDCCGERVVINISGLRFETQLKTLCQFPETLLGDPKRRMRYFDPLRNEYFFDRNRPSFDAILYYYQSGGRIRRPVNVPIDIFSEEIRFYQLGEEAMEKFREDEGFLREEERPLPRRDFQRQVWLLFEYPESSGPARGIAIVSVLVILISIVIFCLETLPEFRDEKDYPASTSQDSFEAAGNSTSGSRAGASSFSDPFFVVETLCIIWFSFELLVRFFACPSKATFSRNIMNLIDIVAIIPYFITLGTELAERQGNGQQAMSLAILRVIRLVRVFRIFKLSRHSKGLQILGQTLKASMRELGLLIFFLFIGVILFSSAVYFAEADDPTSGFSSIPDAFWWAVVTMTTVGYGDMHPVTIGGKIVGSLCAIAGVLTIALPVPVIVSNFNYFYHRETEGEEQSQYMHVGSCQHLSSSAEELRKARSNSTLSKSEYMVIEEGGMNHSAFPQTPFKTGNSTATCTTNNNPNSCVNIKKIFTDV
T1 sequence (Q09470 whole entry): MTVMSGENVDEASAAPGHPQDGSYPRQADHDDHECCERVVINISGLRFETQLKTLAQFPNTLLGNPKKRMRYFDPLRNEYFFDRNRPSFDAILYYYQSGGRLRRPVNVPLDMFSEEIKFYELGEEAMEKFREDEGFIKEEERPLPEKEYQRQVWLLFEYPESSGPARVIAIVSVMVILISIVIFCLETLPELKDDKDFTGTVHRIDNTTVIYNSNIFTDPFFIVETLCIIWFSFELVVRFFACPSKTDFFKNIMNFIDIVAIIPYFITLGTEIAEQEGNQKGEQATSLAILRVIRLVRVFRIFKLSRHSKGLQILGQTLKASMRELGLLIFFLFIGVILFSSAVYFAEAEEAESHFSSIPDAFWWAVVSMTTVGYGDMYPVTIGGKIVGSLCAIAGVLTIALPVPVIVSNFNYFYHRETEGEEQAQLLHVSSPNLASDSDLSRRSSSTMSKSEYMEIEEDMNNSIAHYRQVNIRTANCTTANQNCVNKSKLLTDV

Row | Substance | IC50 [1] [nM] | fold less potent than the synthetic OSK1 toxin peptide [2] | inhibition of T cell proliferation (in words) [3] | binding to fixed HEK 293 cells overexpressing Kv1.3 (in words) [4] | staining of Kv1.3-transfected HEK 293 cells (in words) [5] | block of thapsigargin-induced upregulation of the IL-2R on T cells (in words) [6] | block of thapsigargin-induced upregulation of CD40L on T cells (in words) [7]
1 | Fc-L10-OSK1[E16K,K20D] | > 100 | approximately 6 fold |  |  |  |  | 
2 | Fc-L10-ShK[1-35]: Fc region of human IgG1 fused in-frame to a 10 amino acid linker and the Kv1.3 inhibitor peptide ShK[1-35]; peptibody |  |  | inhibits T cell proliferation; also recorded: blocked T cell proliferation; also recorded: potently inhibits proliferation of T cells in a dose-dependent manner | dose-dependent increase in response; also recorded: high affinity binding to its target | stains HEK 293 cells stably transfected with human Kv1.3 | suppressed | suppressed

From patent publication US7910102B2 (priority 2006, dated 2011)
